Assay results: publication PMC5640227

B1: Human Respiratory Syncytial Virus Matrix (M) protein, GAL4 fusion (natural protein)
chain: METYVNKLHEGSTYTAAVQYNVLEKDDDPASLTIWVPMFQSSMPADLLIKELANVNILVKQISTPKGPSLRVMINSRSAVLAQMPSKFTICANVSLDERSKLAYDVTTPCEIKACSLTCLKSKNMLTTVKDLTMKTLNPTHDIIALCEFENIVTSKKVIIPTYLRSISVRNKDLNTLENITTTEFKNAITNAKIIPYSGLLLVITVTDNKGAFKYIKPQSQFIVDLGAYLEKESIYYVTTNWKHTATRFAIKPMED

Experiments:
[1] = target: Human Respiratory Syncytial Virus Matrix (M) protein, GAL4 fusion (Human Respiratory Syncytial Virus) (UniProt P0DOE7); assay: two-hybrid
[2] = target: Adaptor protein complex 3 medium subunit (AP-3Mu3A), GAL4 fusion (human (HeLa cDNA library)) (UniProt Q9Y2T2); assay: two-hybrid
Sequence of UniProt Q9Y2T2 (Q9Y2T2 whole entry, the tested form may be a part, one chain of several): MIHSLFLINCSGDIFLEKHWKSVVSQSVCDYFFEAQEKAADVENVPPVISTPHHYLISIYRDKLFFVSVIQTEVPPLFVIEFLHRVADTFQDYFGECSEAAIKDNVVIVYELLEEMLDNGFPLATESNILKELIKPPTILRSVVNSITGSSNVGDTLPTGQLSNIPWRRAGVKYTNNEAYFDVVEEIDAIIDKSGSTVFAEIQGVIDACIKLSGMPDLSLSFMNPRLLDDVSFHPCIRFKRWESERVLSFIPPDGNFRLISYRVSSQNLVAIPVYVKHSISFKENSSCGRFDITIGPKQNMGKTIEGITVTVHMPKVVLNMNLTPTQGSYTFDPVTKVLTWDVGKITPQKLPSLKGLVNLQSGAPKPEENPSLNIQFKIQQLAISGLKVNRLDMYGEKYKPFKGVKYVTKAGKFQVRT

Row | Molecule | beta-Galactosidase activity [1] | beta-Galactosidase activity [2]
1 | Adaptor protein complex 3 medium subunit (AP-3Mu3A), GAL4 fusion (from UniProt Q9Y2T2 1-418) (natural protein) | 458 units | 
2 | B1 |  | 420 units
